Experimental findings from IntAct's records for PubMed 31515488 are described below.

B1: Uncharacterized protein C12orf50 (Homo sapiens), Q8NA57 (parent)
chain: MEMQQNCSISCFWETQPLGCVKISCIFYHSKPRNINGLFLPPSSNITLQKEIQEGIPLQSQSQEPLKPQENISRPIHHPLVLKTNFEEEEEVDEQNDASSLWTKTPEEIEEKRAIKEMCYKSGEYYRFHTPPDILSSKSMTPTAEKQLEKPLENGSELQEGDSLTVPTKLSQYERQGEIKTSLHGKPKTDIAAFENGGGDCYVPQRVIFLGVDESEALTEEKEITISKCSNTKDNKDSPHPKHSLTTRLVPTTHVLNATENISMKCREDPSSMNDVQPVKKPHFKGVKKRKWIYDEPQNFPNSGMQRAVQAPRPQNKMSYHRNNKNRNAENASYIHVQRDAVRTVALNAPSRSRPTHGSYNKVHANREPKPNLSPDKYTSTSYNDSAWRKRIPFSKTYSKSEKIYPEPRRNGSK
partner: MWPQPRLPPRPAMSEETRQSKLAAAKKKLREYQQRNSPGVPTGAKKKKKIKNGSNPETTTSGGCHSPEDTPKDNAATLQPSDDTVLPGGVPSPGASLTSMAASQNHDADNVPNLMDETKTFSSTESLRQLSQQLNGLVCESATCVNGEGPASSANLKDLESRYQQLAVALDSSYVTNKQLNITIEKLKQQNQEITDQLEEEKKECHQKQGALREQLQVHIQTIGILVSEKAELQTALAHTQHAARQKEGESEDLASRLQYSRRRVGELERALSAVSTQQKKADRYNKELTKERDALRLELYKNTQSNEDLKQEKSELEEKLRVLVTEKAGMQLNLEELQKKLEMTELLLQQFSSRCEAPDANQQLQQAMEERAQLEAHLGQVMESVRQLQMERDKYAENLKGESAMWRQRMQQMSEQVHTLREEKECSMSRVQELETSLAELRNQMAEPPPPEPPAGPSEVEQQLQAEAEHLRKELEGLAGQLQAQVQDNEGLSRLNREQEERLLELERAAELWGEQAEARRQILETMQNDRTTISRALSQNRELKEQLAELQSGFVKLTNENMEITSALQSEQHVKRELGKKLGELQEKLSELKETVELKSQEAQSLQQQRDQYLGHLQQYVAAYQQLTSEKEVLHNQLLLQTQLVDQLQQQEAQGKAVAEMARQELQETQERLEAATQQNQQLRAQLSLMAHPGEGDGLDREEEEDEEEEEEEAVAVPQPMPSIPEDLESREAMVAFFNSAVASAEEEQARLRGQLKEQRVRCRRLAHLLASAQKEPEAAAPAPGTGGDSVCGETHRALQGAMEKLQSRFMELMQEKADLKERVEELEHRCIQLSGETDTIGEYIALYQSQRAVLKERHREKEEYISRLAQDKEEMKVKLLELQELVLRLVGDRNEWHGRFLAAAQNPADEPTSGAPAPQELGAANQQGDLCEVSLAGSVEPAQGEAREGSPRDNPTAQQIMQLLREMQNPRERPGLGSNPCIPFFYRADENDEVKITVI
B2: Alpha-ketoglutarate-dependent dioxygenase alkB homolog 4 (Homo sapiens), Q9NXW9 (parent)
chain: MAAAAAETPEVLRECGCKGIRTCLICERQRGSDPPWELPPAKTYRFIYCSDTGWAVGTEESDFEGWAFPFPGVMLIEDFVTREEEAELVRLMDRDPWKLSQSGRRKQDYGPKVNFRKQKLKTEGFCGLPSFSREVVRRMGLYPGLEGFRPVEQCNLDYCPERGSAIDPHLDDAWLWGERLVSLNLLSPTVLSMCREAPGSLLLCSAPSAAPEALVDSVIAPSRSVLCQEVEVAIPLPARSLLVLTGAARHQWKHAIHRRHIEARRVCVTFRELSAEFGPGGRQQELGQELLRIALSFQGRPV
partner: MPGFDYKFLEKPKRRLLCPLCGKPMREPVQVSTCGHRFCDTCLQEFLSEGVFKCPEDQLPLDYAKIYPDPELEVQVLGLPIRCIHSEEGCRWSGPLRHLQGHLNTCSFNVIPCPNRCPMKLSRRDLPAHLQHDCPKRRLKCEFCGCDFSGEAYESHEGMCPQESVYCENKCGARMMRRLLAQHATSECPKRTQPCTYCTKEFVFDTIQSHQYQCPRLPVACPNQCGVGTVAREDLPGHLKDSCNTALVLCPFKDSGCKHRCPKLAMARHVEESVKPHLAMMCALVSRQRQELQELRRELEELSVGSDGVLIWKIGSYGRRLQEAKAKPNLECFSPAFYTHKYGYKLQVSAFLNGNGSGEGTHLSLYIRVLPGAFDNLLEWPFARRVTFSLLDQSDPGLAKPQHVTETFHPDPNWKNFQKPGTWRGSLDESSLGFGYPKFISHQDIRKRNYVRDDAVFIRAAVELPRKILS
B3: Myogenin (Homo sapiens), P15173 (parent)
chain: MELYETSPYFYQEPRFYDGENYLPVHLQGFEPPGYERTELTLSPEAPGPLEDKGLGTPEHCPGQCLPWACKVCKRKSVSVDRRRAATLREKRRLKKVNEAFEALKRSTLLNPNQRLPKVEILRSAIQYIERLQALLSSLNQEERDLRYRGGGGPQPGVPSECSSHSASCSPEWGSALEFSANPGDHLLTADPTDAHNLHSLTSIVDSITVEDVSVAFPDETMPN
partner: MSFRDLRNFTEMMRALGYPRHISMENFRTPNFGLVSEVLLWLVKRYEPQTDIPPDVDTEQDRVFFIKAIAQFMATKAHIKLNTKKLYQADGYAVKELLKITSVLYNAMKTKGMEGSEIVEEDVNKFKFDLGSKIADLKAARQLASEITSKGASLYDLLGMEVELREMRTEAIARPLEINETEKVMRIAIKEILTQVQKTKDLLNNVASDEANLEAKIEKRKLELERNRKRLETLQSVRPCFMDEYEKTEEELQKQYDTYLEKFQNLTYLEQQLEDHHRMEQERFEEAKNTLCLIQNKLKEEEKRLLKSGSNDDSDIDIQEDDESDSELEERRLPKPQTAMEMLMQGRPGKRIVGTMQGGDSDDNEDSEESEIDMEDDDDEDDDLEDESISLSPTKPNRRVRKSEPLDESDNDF
B4: Caspase recruitment domain-containing protein 9 (Homo sapiens), Q9H257 (parent)
chain: MSDYENDDECWSVLEGFRVTLTSVIDPSRITPYLRQCKVLNPDDEEQVLSDPNLVIRKRKVGVLLDILQRTGHKGYVAFLESLELYYPQLYKKVTGKEPARVFSMIIDASGESGLTQLLMTEVMKLQKKVQDLTALLSSKDDFIKELRVKDSLLRKHQERVQRLKEECEAGSRELKRCKEENYDLAMRLAHQSEEKGAALMRNRDLQLEIDQLKHSLMKAEDDCKVERKHTLKLRHAMEQRPSQELLWELQQEKALLQARVQELEASVQEGKLDRSSPYIQVLEEDWRQALRDHQEQANTIFSLRKDLRQGEARRLRCMEEKEMFELQCLALRKDSKMYKDRIEAILLQMEEVAIERDQAIATREELHAQHARGLQEKDALRKQVRELGEKADELQLQVFQCEAQLLAVEGRLRRQQLETLVLSSDLEDGSPRRSQELSLPQDLEDTQLSDKGCLAGGGSPKQPFAALHQEQVLRNPHDAGLSSGEPPEKERRRLKESFENYRRKRALRKMQKGWRQGEEDRENTTGSDNTDTEGS
partner: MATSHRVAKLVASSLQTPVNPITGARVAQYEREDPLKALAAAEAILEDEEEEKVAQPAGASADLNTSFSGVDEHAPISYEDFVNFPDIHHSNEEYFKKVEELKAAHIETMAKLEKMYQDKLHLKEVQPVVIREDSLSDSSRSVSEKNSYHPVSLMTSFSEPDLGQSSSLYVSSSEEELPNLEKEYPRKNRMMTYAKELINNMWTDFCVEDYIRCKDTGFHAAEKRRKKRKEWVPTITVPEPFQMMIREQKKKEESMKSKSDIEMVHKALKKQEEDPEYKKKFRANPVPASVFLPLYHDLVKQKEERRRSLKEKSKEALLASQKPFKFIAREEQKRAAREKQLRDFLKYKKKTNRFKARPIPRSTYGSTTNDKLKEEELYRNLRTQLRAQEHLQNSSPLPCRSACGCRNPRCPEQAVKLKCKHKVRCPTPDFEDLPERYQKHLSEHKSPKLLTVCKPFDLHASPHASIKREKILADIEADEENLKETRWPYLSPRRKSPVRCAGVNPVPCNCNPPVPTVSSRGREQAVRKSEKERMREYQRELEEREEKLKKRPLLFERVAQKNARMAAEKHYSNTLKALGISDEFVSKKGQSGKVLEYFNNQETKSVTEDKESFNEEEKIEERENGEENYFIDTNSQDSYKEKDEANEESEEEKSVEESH
B5: Double-strand-break repair protein rad21 homolog (Homo sapiens), O60216 (parent)
chain: MFYAHFVLSKRGPLAKIWLAAHWDKKLTKAHVFECNLESSVESIISPKVKMALRTSGHLLLGVVRIYHRKAKYLLADCNEAFIKIKMAFRPGVVDLPEENREAAYNAITLPEEFHDFDQPLPDLDDIDVAQQFSLNQSRVEEITMREEVGNISILQENDFGDFGMDDREIMREGSAFEDDDMLVSTTTSNLLLESEQSTSNLNEKINHLEYEDQYKDDNFGEGNDGGILDDKLISNNDGGIFDDPPALSEAGVMLPEQPAHDDMDEDDNVSMGGPDSPDSVDPVEPMPTMTDQTTLVPNEEEAFALEPIDITVKETKAKRKRKLIVDSVKELDSKTIRAQLSDYSDIVTTLDLAPPTKKLMMWKETGGVEKLFSLPAQPLWNNRLLKLFTRCLTPLVPEDLRKRRKGGEADNLDEFLKEFENPEVPREDQQQQHQQRDVIDEPIIEEPSRLQESVMEASRTNIDESAMPPPPPQGVKRKAGQIDPEPVMPPQQVEQMEIPPVELPPEEPPNICQLIPELELLPEKEKEKEKEKEDDEEEEDEDASGGDQDQEERRWNKRTQQMLHGLQRALAKTGAESISLLELCRNTNRKQAAAKFYSFLVLKKQQAIELTQEEPYSDIIATPGPRFHII

One assay covers variants of B1. The settings on record: with goga2_human GOLGA2, Q08379.
Consider Q306R, for which the “effect of a mutation on the interaction” value is “with no effect”.

For the variant W292R, the “effect of a mutation on the interaction” value is “disrupting interaction strength”.

Variants of B2 are the subject of the next assay. The note with it: with traf4_human TRAF4, Q9BUZ4.
Regarding R239C, the “effect of a mutation on the interaction” value is listed as “disrupting interaction strength”.

In another assay the parent is B3. The settings on record: with clua1_human CLUAP1, Q96AJ1.
For the variant P49H, the “effect of a mutation on the interaction” value is on record as “with no effect”.

Turning to R147C, the “effect of a mutation on the interaction” value is listed as “with no effect”.

In another assay the parent is B4. The settings on record: with FAM161A.
As for V385L, the “effect of a mutation on the interaction” value is reported as “with no effect”.

In another assay the parent is B5. The note with it: with fhl3_human FHL3, Q13643.
Chain of fhl3_human FHL3, Q13643 (Q13643 whole entry): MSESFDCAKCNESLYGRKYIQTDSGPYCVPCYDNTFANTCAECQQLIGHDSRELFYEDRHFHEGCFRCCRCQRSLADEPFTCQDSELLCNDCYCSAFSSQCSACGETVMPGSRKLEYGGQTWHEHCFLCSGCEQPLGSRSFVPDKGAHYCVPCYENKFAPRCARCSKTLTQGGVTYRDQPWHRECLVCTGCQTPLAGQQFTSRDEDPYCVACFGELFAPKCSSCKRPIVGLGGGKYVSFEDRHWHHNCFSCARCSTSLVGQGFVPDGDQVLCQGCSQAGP
Take P443L: the “effect of a mutation on the interaction” value is recorded as “with no effect”.

For M362L, the “effect of a mutation on the interaction” value was “with no effect”.

In the case of D95H, the “effect of a mutation on the interaction” value is given as “with no effect”.

On to P426S, for which the “effect of a mutation on the interaction” value was “with no effect”.

As to I45V, the “effect of a mutation on the interaction” value is “with no effect”.
